Patent US20240116985A1 (published 2024)
Starred links: 1 amine or outer side, 2 acyl side, 3 side chain; linkers in the order of their positions; H or OH if unused. Positions of bridges follow the written chain, without caps; N, C: chain ends. Non-standard residues stand in square brackets, D forms with d. Primed or numbered codes have the meaning given here. *: point of attachment. PyrS2″ = (S)-3-amino-1-((pent-4-en-1-yloxy)carbonyl)pyrrolidine-3-carboxylic acid (stapling residue), C=CCCCOC(=O)N1CC[C@@](N[*:1])(C(=O)[*:2])C1; B5(4) = 2,2-bis(4-pentenyl)glycine = 2-amino-2-(pent-4-en-1-yl)hept-6-enoic acid (stitching residue), C=CCCCC(CCCC=C)(N[*:1])C(=O)[*:2]; B5 = 2-amino-2-(pent-4-en-1-yl)hept-6-enoic acid, C=CCCCC(CCCC=C)(N[*:1])C(=O)[*:2]; Phe(3-COOH) = N[C@@H](Cc1cccc(C(=O)O)c1)C(=O)O; 2F3MeF = Cc1cccc(C[C@H](N[*:1])C(=O)[*:2])c1F; Bta = N[C@@H](Cc1csc2ccccc12)C(=O)O; Lys(iPr) = CC(C)NCCCC[C@H](N)C(=O)O; hTyr = N[C@@H](CCc1ccc(O)cc1)C(=O)O; αAllylPro = C=CC[C@@]1(C(=O)O)CCCN1; Azidoacetyl = [N-]=[N+]=NCC(=O)*; tBuAla = CC(C)(C)C[C@H](N)C(=O)O; 3Thi = N[C@@H](Cc1ccsc1)C(=O)O; Cha = N[C@@H](CC1CCCCC1)C(=O)O; S8 = C=CCCCCCC[C@](C)(N)C(=O)O; Nicotinoyl = O=C(c1cccnc1)*; Picolinoyl = O=C(c1ccccn1)*; PyrS2(4) = not defined here; hSer = N[C@@H](CCO)C(=O)O; PhAc = O=C(Cc1ccccc1)*

T1: Bcat-Halo (UniProt P35222 1-781)
T1 sequence (looked up): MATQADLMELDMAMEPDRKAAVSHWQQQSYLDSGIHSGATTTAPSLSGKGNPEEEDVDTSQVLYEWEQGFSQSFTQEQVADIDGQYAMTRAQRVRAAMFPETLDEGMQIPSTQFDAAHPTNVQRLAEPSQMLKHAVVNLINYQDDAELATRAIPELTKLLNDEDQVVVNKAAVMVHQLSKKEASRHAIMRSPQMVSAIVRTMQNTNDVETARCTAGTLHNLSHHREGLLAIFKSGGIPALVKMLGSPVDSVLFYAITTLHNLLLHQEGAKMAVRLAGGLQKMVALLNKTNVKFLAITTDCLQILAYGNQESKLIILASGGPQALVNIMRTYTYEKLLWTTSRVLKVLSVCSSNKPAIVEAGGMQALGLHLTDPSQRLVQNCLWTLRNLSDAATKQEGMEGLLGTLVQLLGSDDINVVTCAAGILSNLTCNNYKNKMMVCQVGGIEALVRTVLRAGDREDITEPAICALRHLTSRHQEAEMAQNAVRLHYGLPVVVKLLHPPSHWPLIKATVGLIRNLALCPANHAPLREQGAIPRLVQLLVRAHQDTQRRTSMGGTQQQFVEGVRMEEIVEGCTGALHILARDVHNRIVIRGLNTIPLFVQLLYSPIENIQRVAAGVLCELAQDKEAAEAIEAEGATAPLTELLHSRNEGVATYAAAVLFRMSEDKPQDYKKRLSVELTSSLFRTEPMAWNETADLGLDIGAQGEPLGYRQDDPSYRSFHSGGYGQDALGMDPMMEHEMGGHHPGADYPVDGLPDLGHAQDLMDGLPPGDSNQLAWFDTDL

T2: full-length beta-Catenin (Uniprot ID P35222) (Homo sapiens (Human), UniProt P35222 1-781)
T2 construct: The assay text says 'full-length beta-Catenin (Uniprot ID P35222)'; also called bCat; B-Catenin
T2 sequence: T1 sequence (looked up)

B1: I-2120 (peptide)
peptide: Ac-[αAllylPro]D[tBuAla][B5(4)]DHAA[Phe(3-COOH)][hSer][PyrS2(4)][3Thi][Bta]Q-NH2
modifications: staple 1-4, 4-11; reading uncertain; also: earlier eluting HPLC isomer composition, printed as Ac-PL3-Asp-Npg-B5-Asp-His-Ala-Ala-3COOHF-Hse-PyrS2-3Thi-BztA-Gln-NH2
B2: I-599 (peptide)
peptide: Picolinoyl-[αAllylPro]DI[B5]DEAAFQ[S8]F[Bta]Q-NH2
modifications: staple 1-4, 4-11
notes: Stapled peptide composition; N-terminal cap Pic
B3: I-601 (peptide)
peptide: XDIXDEAAFQXFXQ
modifications: Bnc-PL3-Asp-Ile-B5-Asp-Glu-Ala-Ala-Phe-Gln-S8-Phe-BztA-Gln-NH2; stapled PL3(1)-B5(4) and B5(4)-S8(11) by olefin metathesis
notes: Stapled peptide composition; N-terminal cap Bnc; same description as I-600, later eluting HPLC peak (staple isomer)
B4: I-598 (peptide)
peptide: Nicotinoyl-[αAllylPro]DI[B5]DEAAFQ[S8]F[Bta]Q-NH2
modifications: staple 1-4, 4-11
notes: Stapled peptide composition; N-terminal cap Nic
B5: I-589 (peptide)
peptide: XDKXDEAAFQXFXQ
modifications: not fully specified; Ac-PL3-Asp-[AzAc]Lys-B5-Asp-Glu-Ala-Ala-Phe-Gln-S8-Phe-BztA-Gln-NH2; stapled PL3(1)-B5(4) and B5(4)-S8(11) by olefin metathesis
notes: Stapled peptide composition; same description as I-590, earlier eluting HPLC peak (staple isomer)
B6: I-591 (peptide)
peptide: Ac-[αAllylPro]DI[B5(4)]DEK(Azidoacetyl)AFQ[S8]F[Bta]Q-NH2
modifications: staple 1-4, 4-11; not fully specified; printed as Ac-PL3-Asp-Ile-B5-Asp-Glu-[AzAc]Lys-Ala-Phe-Gln-S8-Phe-BztA-Gln-NH2
notes: Stapled peptide composition
B7: I-597 (peptide)
peptide: Ac-[αAllylPro]DI[B5]DEAAFQ[S8]F[Bta]QK(Azidoacetyl)-NH2
modifications: staple 1-4, 4-11; not fully specified
notes: Stapled peptide composition; same description as I-596, later eluting HPLC peak (staple isomer)
B8: I-602 (peptide)
peptide: XDIXDEAAFQXFXQ
modifications: 2PyPrpc-PL3-Asp-Ile-B5-Asp-Glu-Ala-Ala-Phe-Gln-S8-Phe-BztA-Gln-NH2; stapled PL3(1)-B5(4) and B5(4)-S8(11) by olefin metathesis
notes: Stapled peptide composition; N-terminal cap 2PyPrpc
B9: I-600 (peptide)
peptide: PhAc-[αAllylPro]DI[B5]DEAAFQ[S8]F[Bta]Q-NH2
modifications: staple 1-4, 4-11
notes: Stapled peptide composition; N-terminal cap Bnc
B10: I-596 (peptide)
peptide: XDIXDEAAFQXFXQK
modifications: not fully specified; Ac-PL3-Asp-Ile-B5-Asp-Glu-Ala-Ala-Phe-Gln-S8-Phe-BztA-Gln-[AzAc]Lys-NH2; stapled PL3(1)-B5(4) and B5(4)-S8(11) by olefin metathesis
notes: Stapled peptide composition

biological target: T1, Bcat-Halo; assay: cell-based or functional assay

Binder | NanoBRET Abs IC50 [nM]
Ac-[αAllylPro]D[tBuAla][B5(4)]DHAA[Phe(3-COOH)]N[PyrS2″][3Thi][Bta]Q-NH2 (staple 1-4, 4-11; also: earlier eluting HPLC isomer composition) [I-2118] | > 20000
Ac-[αAllylPro]N[Cha][B5(4)]DQ[Lys(iPr)]AFN[PyrS2″]F[Bta]N-NH2 (staple 1-4, 4-11) [I-2111] | > 20000
Ac-[αAllylPro]N[Cha][B5(4)]DQ[Lys(iPr)]AF[Lys(iPr)][PyrS2″]F[Bta][hSer]-NH2 (staple 1-4, 4-11) [I-2102] | > 20000
Ac-[αAllylPro]N[Cha][B5(4)]DQ[Lys(iPr)]AFN[PyrS2″]F[Bta]K-NH2 (staple 1-4, 4-11) [I-2110] | > 20000
Ac-[αAllylPro]D[tBuAla][B5(4)]DHAA[Phe(3-COOH)][hSer][PyrS2″][3Thi][Bta]Q-NH2 (staple 1-4, 4-11; also: later eluting HPLC isomer composition) [I-2121] | > 20000
Ac-[αAllylPro]D[tBuAla][B5(4)]DHAA[Phe(3-COOH)]L[PyrS2″][3Thi][Bta]Q-NH2 (staple 1-4, 4-11; also: earlier eluting HPLC isomer composition) [I-2122] | 34400
B1 | 37200
Ac-[αAllylPro]D[tBuAla][B5(4)]D[Phe(3-COOH)]A[dA]FL[PyrS2″][3Thi][Bta][dA]-NH2 (staple 1-4, 4-11) [I-2100] | > 20000
Ac-[αAllylPro]D[tBuAla][B5(4)]D[hTyr]AA[Phe(3-COOH)][hSer][PyrS2″][3Thi][Bta]Q-NH2 (staple 1-4, 4-11; also: earlier eluting HPLC isomer composition) [I-2116] | 33400
Ac-[αAllylPro]D[tBuAla][B5(4)]D[hTyr]AA[Phe(3-COOH)]N[PyrS2″][3Thi][Bta]Q-NH2 (staple 1-4, 4-11; also: earlier eluting HPLC isomer composition) [I-2114] | > 20000
Ac-[αAllylPro]D[tBuAla][B5(4)]D[Phe(3-COOH)]A[dA]FL[PyrS2″][3Thi][Bta]A-NH2 (staple 1-4, 4-11; also: later-eluting HPLC isomer composition) [I-2097] | 22300
Ac-[αAllylPro]D[tBuAla][B5(4)]D[Phe(3-COOH)]A[dA]FL[PyrS2″][2F3MeF][Bta]A-NH2 (staple 1-4, 4-11; also: earlier-eluting HPLC isomer composition) [I-2098] | > 20000
Ac-[αAllylPro]D[tBuAla][B5(4)]D[hTyr]AA[Phe(3-COOH)]N[PyrS2″][3Thi][Bta]Q-NH2 (staple 1-4, 4-11; also: later eluting HPLC isomer composition) [I-2115] | > 20000
Ac-[αAllylPro]D[tBuAla][B5(4)]D[Phe(3-COOH)]A[dA]FL[PyrS2″][3Thi][Bta]A-NH2 (staple 1-4, 4-11; also: earlier-eluting HPLC isomer composition) [I-2096] | > 20000
Ac-[αAllylPro]N[Cha][B5(4)]DQ[Lys(iPr)]AFN[PyrS2″]F[Bta]H-NH2 (staple 1-4, 4-11) [I-2109] | > 20000
Ac-[αAllylPro]D[tBuAla][B5(4)]D[hTyr]AA[Phe(3-COOH)][hSer][PyrS2″][3Thi][Bta]Q-NH2 (staple 1-4, 4-11; also: later eluting HPLC isomer composition) [I-2117] | > 20000
Ac-[αAllylPro]D[tBuAla][B5(4)]DHAA[Phe(3-COOH)]N[PyrS2″][3Thi][Bta]Q-NH2 (staple 1-4, 4-11; also: later eluting HPLC isomer composition) [I-2119] | > 20000

biological target: T2, full-length beta-Catenin (Uniprot ID …); assay: fluorescence polarization competition; full-length beta-catenin, competitor 5FAM-TCF4(10-53) probe
Protocol: The plate was incubated protected from light for 60 minutes at 20° C. prior to read. Reads were performed on a CLARIOstar plate reader (BMG Labtech) in duplicate, and data were fitted to a 1:1 binding model with hill slope using an in-house script. All provided concentrations are final concentrations.

Binder | EC50 [nM]
B2 | 138
B3 | 419
B4 | 845
Ac-[αAllylPro]DI[B5]DEAK(Azidoacetyl)FQ[S8]F[Bta]Q-NH2 (staple 1-4, 4-11, Stapled peptide composition) [I-593] | 68
B5 | 48
Ac-[αAllylPro]DI[B5]DEAAFK(Azidoacetyl)[S8]F[Bta]Q-NH2 (staple 1-4, 4-11, Stapled peptide composition) [I-594] | 87
B6 | 64
Ac-[αAllylPro]DI[B5]DEK(Azidoacetyl)AFQ[S8]F[Bta]Q-NH2 (staple 1-4, 4-11; not fully specified, Stapled peptide composition) [I-592] | 24
Ac-[αAllylPro]DI[B5]DEAAFQ[S8]F[Bta]K(Azidoacetyl)-NH2 (staple 1-4, 4-11, Stapled peptide composition) [I-595] | 57
Ac-[αAllylPro]DK(Azidoacetyl)[B5(4)]DEAAFQ[S8]F[Bta]Q-NH2 (staple 1-4, 4-11; not fully specified, Stapled peptide composition) [I-590] | 45
Ac-[αAllylPro]DI[B5]DQAAFQ[S8]F[Bta]Q-NH2 (staple 1-4, 4-11, Stapled peptide composition) [I-603] | 392
B7 | 76
B8 | 3150
B9 | 796
B10 | 112
